Source: patent US10293027B2, “Methods for treating metabolic disorders using FGF” (Salk Institute for Biological Studies, priority 2010, dated 2019)
“Also recorded” adds a separate entry of the source.

Assays:
Assay type in all cases: in vivo, mouse
ob/ob mice [1] = test: Single s.c. injection of human FGF1 or other FGFs, blood glucose in ob/ob mice (Examples 13, 14); settings: 0.5 mg/kg s.c.
Description: FIG. 26. Human recombinant FGF-1 is effective in mice.
FIG. 27. Comparison of FGF1, FGF2, FGF9, and FGF10 effects. Single subcutaneous injection of FGFs (0.5 mg/kg) in ob/ob mice.
As human recombinant FGF-1 is already being used in the clinic, the present methods of using it to treat metabolic disorders offer a straightforward regulatory path to treatment.
As explained above, the FGF family of factors bind to members of the FGFR family of receptors with different specificities. FGF-1 binds preferentially to FGFR1 and FGFR4, and can be internalized into a cell expressing these receptors. To determine if other FGF proteins have similar metabolic effects as FGF-1, we tested blood glucose in ob/ob mice treated with FGF-2, FGF-9, and FGF-10 (0.5 mg/kg s.c.). This combination of FGF proteins binds to the spectrum of FGFRs.

ob/ob mice [2] = test: Glucose tolerance test after four weeks of FGF-1 administration; settings: after four weeks of 0.5 mg/kg/3 days s.c.
Description: Glucose tolerance tests (GTT) were conducted after overnight fasting. Mice were injected intraperitoneally (i.p.) with 1 g of glucose per/kg body weight, and blood glucose was monitored at 0, 15, 30, 60, 90, and 120 min using a OneTouch Ultra glucometer (Lifescan Inc). Insulin tolerance tests (ITT) were conducted after overnight fasting. Mice were injected i.p. with 0.5 U of insulin/kg body weight (Humulin R; Eli Lilly), and blood glucose was monitored at 0, 15, 30, 60, 90, and 120 min using a OneTouch Ultra glucometer (Lifescan Inc). Real-time metabolic analyses were conducted in an undisturbed room under 12 h/12 h light/dark cycles using a Comprehensive Lab Animal Monitoring System (Columbus Instruments).
These tests were carried out as described above.

ob/ob male mice = test: Daily FGF-1 or rosiglitazone treatment of ob/ob mice: fed blood glucose and body composition (Example 5)
Description: FIGS. 7A-7H. FGF-1 injection studies in rodents. (A) Fed blood glucose in ob/ob male mice treated with FGF-1 (0.5 mg/kg, s.c.), rosiglitazone (TZD, 5 mg/kg, p.o.), or vehicle. FGF-1 was administered once daily, and blood glucose levels were measured at day 0 (basal levels before FGF-1 injection), day 3, and day 6, 1 hour after injection. The values (±SE) shown are the average of the measurements of 5 animals in a group; (B) Sustained glucose lowering effects of FGF-1: Fed blood glucose levels in ob/ob mice at indicated time points after the last FGF-1 injection at day 6. (C-H): 72 hrs after the sixth dose, another dose was given and effects of FGF-1 and TZD on (C) body weight, (D) total body fat, (E) lean weight, (F) weight gain, (G) liver weight, and (H) heart weight were determined.
In Example 5, ob/ob male mice (8 wk old) were randomized into three groups and treated with daily subcutaneous (s.c.) injections of recombinant mouse FGF-1 (0.5 mg/kg in PBS), oral rosiglitazone (TZD, 5 mg/kg in 0.5% carboxymethyl cellulose), or vehicle. Blood glucose levels were measure in fed animals one hour after treatment. Total body composition analysis was performed using an EchoMRI-100™ (Echo Medical Systems, LLC).
Eight-week-old male ob/ob mice were treated with recombinant mouse FGF-1 (0.5 mg/kg/day, s.c. in 250 μl), rosiglitazone (TZD, 5 mg/kg/day, p.o. in 300 μl), or vehicle control (s.c. vehicle control 0.9% NaCl, 250 μl/mouse; p.o. vehicle control 0.5% CMC, 300 μl/mouse). Blood glucose was measured one hour after treatment at day 3 and day 6 using a standard protocol. (FIG. 7A).
Before treatment, all groups were severely hyperglycemic, as indicated by blood glucose levels of about 400 mg/dl. […] At 6 days, blood glucose levels were even further reduced to around 130-140 mg/dl for both groups. After the sixth dose, blood glucose levels were monitored for another 72 hrs. During this period, both FGF-1- and TZD-treated cohorts maintained normoglycemic levels (<140 mg/dl) for at least 48 hrs (FIG. 7B). At 72 hrs after the sixth dose, a final dose was given, and 12 hrs later, a total body composition analysis was performed by MRI followed by necropsy.

[3] = system: db/db leptin receptor mutant diabetic mice; test: Single s.c. FGF-1 injection, blood glucose in db/db mice; settings: single s.c. injection 0.5 mg/kg
Source text: FIG. 24. FGF-1 effects in db/db mice. […] The db/db model is considered to represent a […] diabetes model than ob/ob.
The ob/ob model is considered to represent a very severe diabetic disease. In order to investigate the effect of FGF-1 on less severe diabetic/metabolic disorder models, we tested blood glucose levels in db/db mice and diet induced obese mice.

B1: FGF-1: recombinant mouse FGF-1 (acidic fibroblast growth factor), a secreted protein that binds heparin and FGF receptors (protein, UniProt P61148 16-155, looked up)
Fibroblast growth factor 1: FNLPLGNYKKPKLLYCSNGGHFLRILPDGTVDGTRDRSDQHIQLQLSAESAGEVYIKGTETGQYLAMDTEGLLYGSQTPNEECLFLERLEENHYNTYTSKKHAEKNWFVGLKKNGSCKRGPRTHYGQKAILFLPLPVSSD
For B1, the “blood glucose in ob/ob mice after a single s.c. injection” value (ob/ob mice [1]) was “Only FGF1 has glucose normalizing effects”, the “glucose tolerance (GTT)” value (ob/ob mice [2]) was “cleared glucose more effectively than untreated controls; also recorded: enhances glucose tolerance” and the “blood glucose levels at day three” value (ob/ob male mice; fed ob/ob male mice, one hour after treatment, FGF-1 0.5 mg/kg/day s.c., TZD 5 mg/kg/day p.o., about 400 mg/dl before treatment) was “about 200 mg/dl”. The “blood glucose (in words)” value (ob/ob male mice; ob/ob diabetic mice, FGF-1 administration) was “decreases fed blood glucose in ob/ob mice; also recorded: normalizes their glucose levels”, the fat-lean ratio (ob/ob male mice; ob/ob mice, total body composition by MRI) was “improves their fat-lean ratio” and the “blood glucose in db/db mice” value [3] was “effective for reducing blood glucose levels in both systems; also recorded: normalizes blood glucose”.
